{
  "source": "paper PMC6449940",
  "about": "“The Cdc42 effectors Gic1 and Gic2 regulate polarized post-Golgi secretion” (Cell & Bioscience, 2019)",
  "key": {"His6-Cdc42": {"target": "T1, His6-Cdc42 (S. cerevisiae, UniProt P19073 1-191)", "T1 construct": "Cdc42, small GTPase, S. cerevisiae; also called Hisx6-Cdc42; Cdc42 wild type; source: bacteria, purified (Hisx6 fusion)", "experiment": "pull-down; GST-Gic2N (a.a.1–155) on glutathione Sepharose (20 μg), His6-Cdc42 or mutant (10 μg) in the presence of GTPγS; bound protein detected with anti-Hisx6 antibody", "conditions": "both partners purified"}, "[1]": {"target": "T2, His6-cdc42-302 (V36A F37A) (S. cerevisiae, UniProt P19073 1-191, V36A | F37A)", "T2 construct": "Cdc42, S. cerevisiae, with V36A and F37A; source: bacteria, purified (Hisx6 fusion)", "T2 sequence (P19073 whole entry V36A/F37A, the tested form may be a part)": "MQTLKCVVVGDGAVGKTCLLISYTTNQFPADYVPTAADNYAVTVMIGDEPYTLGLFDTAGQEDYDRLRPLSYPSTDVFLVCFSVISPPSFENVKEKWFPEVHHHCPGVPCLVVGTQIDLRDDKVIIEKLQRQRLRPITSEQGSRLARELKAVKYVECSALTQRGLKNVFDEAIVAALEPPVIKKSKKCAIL", "experiment": "pull-down; GST-Gic2N (a.a.1–155) on glutathione Sepharose (20 μg), His6-Cdc42 or mutant (10 μg) in the presence of GTPγS; bound protein detected with anti-Hisx6 antibody", "conditions": "both partners purified"}},
  "data": [
    {"binder": "GST-tagged Gic2N (amino acids 1–155) (domain or fragment, S. cerevisiae (budding yeast), UniProt Q06648 1-155, looked up, also called GST-Gic2N; GST-Gic2; source: GST fusion protein, purified and conjugated to glutathione Sepharose) MTSASITNTGNETMNLPQMRSIWLDEDEEAEKLYGLQAQQFMGSDDEENLGITFINSDKPVLSNKKNIELPPLSPNSHPSCHHRRSNSNSAKSKESSSSSSSANKTNHKKVFLKLNLLKKKLLGAQPDIRGKGISTPFDFQHISHADTRNGFQDE", "values": [
      {"measurement": "binding result", "setting": "His6-Cdc42", "result": "binds"},
      {"measurement": "binding result", "setting": "[1]", "result": "binds"}
    ]}
  ]
}
